The target of assay [1] is T1, human PD1 expressed on a cell surface (human, UniProt Q15116 25-288). Nature of the assay: cell-based or functional assay.
Assay [2] addresses T1, human PD1 expressed on a cell surface. Nature of the assay: flow cytometry on OKT3-activated human T cells, CD4- cells. How it is done: (§1) The following experiment tested whether the selected anti-hPD1 antibodies can bind to native PD1 expressed on the surface of activated T cells. Human PBMCs were pre-activated with OKT3 (an anti-CD3 antibody) at a concentration of 1 μg/ml. After three days, the PBMCs, which were mostly activated T cells at this time, were distributed into a 96 well microtiter plate using 0.1×10⁶ cells/well. […] The antibody bound to CD4⁺ T cells and CD4⁻ T cells (which were predominately CD8⁺ T cells) was detected using anti-hlgG-FITC and an anti-CD4 antibody labeled with allophycocyanin (anti-CD4-APC).
(§2) The samples were analyzed by flow cytometry (FACScalibur, BD), and binding was reported as an MFI. EC₅₀'s for binding were calculated using GraphPad Prism software.

Assay [3] shares this target. Nature of the assay: flow cytometry on OKT3-activated human T cells, CD4+ cells. How it is done: as §1, §2
Assay [4] shares this target. Nature of the assay: cell-based or functional assay. This is another data set of the same source.
Assay [5] addresses T2, soluble, biotinylated PD1 protein containing only the extracellular region (human, UniProt Q15116 25-170, biotinylated in vivo (site not stated)).
T2 construct: extracellular domain; also called biotinylated hPD1
Nature of the assay: …; inhibition of GST-hPDL1 binding to biotinylated hPD1. How it is done:
Finally, 10 μL of streptavidin donor beads (which can bind the biotinylated hPD1) were added to bring the final concentration of donor beads to 16 μg/mL, and the plates were incubated in the dark at RT for one hour. […] An antibody that inhibits this interaction or binding will decrease the signal, since the inhibiting antibody prevents physical proximity of the donor and acceptor beads.
Plates were read in an EnVision 2103 Multilabel Reader (PerkinElmer) using illumination at a wavelength of 680 nm and reading emission at a wavelength of about […]. The results were plotted and IC₅₀ values were calculated using GraphPad Prism software.

For assay [6], the target named is T3, recombinant human (rhu) PD1 (extracellular domain only) (human, UniProt Q15116 25-170).
T3 construct: extracellular domain; also called recombinant human PD1
Nature of the assay: SPR (Biacore 3000), antibody captured by anti-human IgG, PD1 as analyte. How it is done:
(§3) Biosensor analysis was conducted at 25° C. in an HBS-EP buffer (10 mM HEPES, 150 mM NaCl, 3 mM EDTA, 0.005% polysorbate 20, 0.1% bovine serum albumin, pH 7.4) using a Biacore 3000 optical biosensor equipped with a CM5 sensor chip according to the manufacturer's general protocol. The auto sampler was maintained at ambient temperature. […] About 8000 resonance units (RU) of this antibody was immobilized on these chips. Flow cell 4 was used to analyze captured anti-hPD1 antibodies (about 100 to 200 RU were captured on flow cell 4), while flow cell 3 was used as the reference flow cell. Both analytes, recombinant human PD1 and recombinant cynomolgus PD1, were prepared in five concentrations for each antibody tested. The analyte concentrations tested ranged from 1.2 to 300 nM. All analyte dilutions were prepared in HPS-EP buffer. Each of the five analyte sample concentrations were run in duplicate and in a mixed order, as a means of assessing the reproducibility of binding and mitigating systematic bias to the order of injection. Multiple blank (running buffer) injections also were run and used to assess and subtract system artifacts. The association phase and dissociation phase for all analyte concentrations were monitored for 300 seconds and 1500 seconds, respectively, at a flow rate of 50 μL/min. Between antibody samples the surface of the flow cell was regenerated with 10 mM glycine, pH 1.5 for 30 seconds at a flow rate of 50 μL/min.
(§4) The data was aligned, double referenced, and fit using SCRUBBER 2™ software (BioLogic Software, Pty, Australia), which is a Surface Plasmon Resonance (SPR) data processing and non-linear least squares regression fitting program.

Assay [7] addresses T4, extracellular domain of a recombinant cynomolgus (rcyno) PD1 (cynomolgus monkey, UniProt B0LAJ3 25-170).
T4 construct: also called recombinant cynomolgus PD1
Described as above. How it is done:
as §3, §4

T3 sequence (Q15116 25-170): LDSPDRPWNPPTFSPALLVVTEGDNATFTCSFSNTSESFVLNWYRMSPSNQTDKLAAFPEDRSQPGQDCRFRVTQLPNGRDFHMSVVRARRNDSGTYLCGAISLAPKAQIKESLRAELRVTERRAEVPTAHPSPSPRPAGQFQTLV
T2 sequence (Q15116 25-170): as above
T1 sequence (Q15116 25-288): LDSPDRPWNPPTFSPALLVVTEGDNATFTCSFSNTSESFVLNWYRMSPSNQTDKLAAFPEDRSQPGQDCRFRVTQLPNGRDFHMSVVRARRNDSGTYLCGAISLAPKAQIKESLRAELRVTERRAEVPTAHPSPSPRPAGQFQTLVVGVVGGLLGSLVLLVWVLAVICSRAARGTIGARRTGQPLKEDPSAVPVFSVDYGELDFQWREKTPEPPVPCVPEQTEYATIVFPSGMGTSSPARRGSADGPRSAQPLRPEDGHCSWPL
T4 sequence (B0LAJ3 entry or part of it limits assumed): as the sequence (Q15116 25-170) above, with D2E, P10A, V19L, T35A, Q75R, T144A counted along it

B1: anti-hPD1 antibody #6 (antibody, human IgG4, V domains shown)
VH: QVQLVQSGAEVKKPGASVKVSCKASGYTFTNYWIHWVRQAPGQGLEWMGEIDPYDSYTNYNQKFKGRVTMTGDTSTSTVYMELSSLTSEDTAVYYCARPGYTYGGMDFWGQGTLVTVSS
VL: DIQMTQSPSSLSASVGDRVTITCRSSQSLFNSGNQKNYLAWYQQKPGKPPKLLIYGASTRESGVPARFSGSGSGTDFTLTISSLQPEDVATYYCQNDHYYPYTFGGGTKVEIK
notes: also called Anti-hPD1 #6; Anti-PD1 #6
As for B1, the “IC50, luciferase (RLU), PD1 dual cell reporter assay (Jurkat cells with hPD1 plus CHO-K1 cells with hPDL1)” value (“IC50, luciferase (RLU)” for short) in assay [1] came out at 3850 pM. Besides, the results for the 50% effective concentration (EC50) in assay [2] and in assay [3] were 616 pM and 668 pM, respectively.

B2: anti-hPD1 antibody #7 (antibody, human IgG4, V domains shown)
VH: QVQLVQSGAEVKKPGASVKVSCKASGYTFTNYWIHWVRQAPGQGLEWMGEIDPYDSYTNYNQKFKGRVTMTIDKSTNTVYMELSSLRSEDTAVYYCARPGLTYGGMDFWGQGTLVTVSS
VL: DIVMTQSPDSLAVSLGERATINCRSSQSLFISGNQKNYLAWYQQKPGQPPKLLIYGASTRESGVPDRFSGSGSGTDFTLTISSLQAEDVAVYYCQNNHYYPYTFGGGTKVEIK
notes: also called Anti-hPD1 #7; Anti-PD1 #7
Regarding B2, in assay [1], the “IC50, luciferase (RLU)” value stood at 2390 pM. Besides, in assay [4], the “EC50 for CD4+ T cell proliferation (pM), mixed lymphocyte reaction” value (“EC50 for CD4+ T cell proliferation (pM)” for short) is 165 pM; the “EC50 for CD8+ T cell proliferation (pM), mixed lymphocyte reaction” value (from here on “EC50 for CD8+ T cell proliferation (pM)”) was 1520 pM; the “EC50 for IFN gamma production (pM), mixed lymphocyte reaction” value (from here on “EC50 for IFN gamma production (pM)”) is 1460 pM. The same molecule gave an EC50 in assay [2] of 569 pM. This molecule registered a half-maximal inhibitory concentration (IC50) in assay [5] of 307 pM. For the same molecule, in assay [6], the equilibrium dissociation constant (Kd) is 297 pM, the koff turned out to be 3.54e-05 s⁻¹ and the kon was 119000 M⁻¹ s⁻¹. In addition, in assay [7], the equilibrium dissociation constant (Kd) was determined as 400 pM, the koff came out at 5.79e-05 s⁻¹ and the on-rate (kon) worked out at 145000 M⁻¹ s⁻¹. This molecule gave an EC50 in assay [3] of 439 pM.

B3: anti-hPD1 antibody #3 (antibody, human IgG4, V domains shown)
VH: QVQLVQSGAEVKKPGASVKVSCKASSYTFTNYWMHWVRQAPGQGLEWMGEIDPYDSYTNYNQKFKGRVTMTIDTSTSTVYMELSSLTSEDTAVYYCARPGFTYGGMDFWGQGTLVTVSS
VL: DIQMTQSPSSLSASVGDRVTITCKSSQSLFNSGNQKNYLAWYQQKPGKVPKLLIYGASTRESGVPARFSGSGSGTDFTLTISSLQAEDVATYYCQNDHYYPYTFGGGTKVEIK
notes: also called Anti-hPD1 #3; Anti-PD1 #3
As to B3, in assay [1], the “IC50, luciferase (RLU)” value turned out to be 2370 pM. Also, in assay [4], the “EC50 for CD4+ T cell proliferation (pM)” value is 365 pM; the “EC50 for CD8+ T cell proliferation (pM)” value came to 3670 pM; the “EC50 for IFN gamma production (pM)” value stood at 2220 pM. For the same molecule, in assay [2], the EC50 was 690 pM. Besides, the half-inhibitory concentration (IC50) in assay [5] is 306 pM. For the same molecule, in assay [6], the Kd stood at 5160 pM, the off-rate constant (koff) is 0.000348 s⁻¹ and the kon was 67400 M⁻¹ s⁻¹. Besides, in assay [3], the midpoint of the response, the EC50, lay at 536 pM.

B4: anti-hPD1 antibody #10 (antibody, human IgG4, V domains shown)
VH: QVQLVQSGAEVKKPGASVKVSCKASGYTFTSYWMHWVRQAPGQGLEWMGEIDPFDSYTNYNQKFKGRVTMTIDKSTNTVYMELSSLGSEDTAVYYCARPGYTYGGMDFWGQGTLVTVSS
VL: DIVMTQSPDSLAVSLGERATINCRSSQSLFISGNQKNYLAWYQQKPGQPPKLLIYGASTRDSGVPDRFSGSGSGTDFTLTISSLQAEDVAVYYCQNNHYYPYTFGGGTKVEIK
notes: also called Anti-hPD1 #10; Anti-PD1 #10
As to B4, in assay [1], the “IC50, luciferase (RLU)” value came out at 2690 pM. Moreover, in assay [4], the “EC50 for CD4+ T cell proliferation (pM)” value is 234 pM; the “EC50 for CD8+ T cell proliferation (pM)” value was 839 pM; the “EC50 for IFN gamma production (pM)” value came to 2210 pM. Further, a half-maximal effect in assay [2] (EC50) was put at 1600 pM. Besides, the 50% inhibitory concentration (IC50) in assay [5] turned out to be 279 pM. Besides, in assay [6], the dissociation constant Kd was determined as 917 pM, the koff came to 7.15e-05 s⁻¹ and the kon was determined as 78000 M⁻¹ s⁻¹. The molecule further showed an EC50 in assay [3] of 1070 pM.

B5: anti-hPD1 antibody #4 (antibody, human IgG4, V domains shown)
VH: QVQLVQSGAEVKKPGASVKVSCKASGYTFTNYWMHWVRQAPGQGLEWMGEIDPFDSYTNYNQKFKGRVTMTRDTSTSTVYMELSSLTSEDTAVYYCARPGYTYGGMDFWGQGTLVTVSS
VL: DIQMTQSPSSLSASVGDRVTITCKSSQSLLNSGNQKNYLAWYQQKPGKPPKLLIYGASTRDSGVPSRFSGSGSGTDFTLTISSLQPEDVATYYCQNDHYYPYTFGGGTKVEIK
notes: also called Anti-hPD1 #4; Anti-PD1 #4
For B5, the “IC50, luciferase (RLU)” value in assay [1] came out at 2030 pM. For the same molecule, in assay [4], the “EC50 for CD4+ T cell proliferation (pM)” value was determined as 391 pM; the “EC50 for CD8+ T cell proliferation (pM)” value worked out at 534 pM; the “EC50 for IFN gamma production (pM)” value is 1540 pM. In assay [2], this molecule came in with an EC50 of 885 pM. Further, the IC50 in assay [5] came out at 314 pM. In assay [6], the equilibrium dissociation constant (Kd) was 4620 pM, the koff turned out to be 0.000279 s⁻¹ and the on-rate (kon) was found to be 60400 M⁻¹ s⁻¹. The EC50 in assay [3] was determined as 672 pM.

B6: anti-hPD1 antibody #5 (antibody, human IgG4, V domains shown)
VH: QVQLVQSGAEVKKPGASVKVSCKASGYTFTNYWMHWVRQAPGQGLEWMGEIDPFDSYTNYNQKFKGRVTMTRDKSTSTVYMELSSLRSEDTAVYYCARPGFTYGGMDFWGQGTLVTVSS
VL: DIQMTQSPSSLSASVGDRVTITCRSSQSLLNSGNQKNYLAWYQQKPGKLPKLLIYGASTRDSGVPSRFSGSGSGTDFTLTISSLQAEDVATYYCQNDHYYPYTFGGGTKVEIK
notes: also called Anti-hPD1 #5; Anti-PD1 #5
In the case of B6, in assay [1], the “IC50, luciferase (RLU)” value stood at 3000 pM. Besides, the concentration giving a half-maximal response (EC50) was found to be 1120 pM in assay [2] and 974 pM in assay [3].

B7: anti-hPD1 antibody #14 (antibody, human IgG4, V domains shown)
VH: QVQLVQSGAEVKKPGASVKVSCKASGYTFTNYWIHWVRQAPGQGLEWMGEIDPYDSYTNYNQKFKGRVTMTGDKSTSTVYMELSSLTSEDTAVYYCARPGYTYGGMDFWGQGTLVTVSS
VL: DIQMTQSPSSLSASVGDRVTITCKSSQSLFNSGNQKNYLAWYQQKPGKLPKLLIYGASTRDSGVPSRFSGSGSGTDFTLTISSLQPEDVATYYCQNDHYYPYTFGGGTKVEIK
notes: also called Anti-hPD1 #14; Anti-PD1 #14
With B7, in assay [1], the “IC50, luciferase (RLU)” value was determined as 2690 pM. For the same molecule, the EC50 was determined as 449 pM in assay [2] and 390 pM in assay [3].

B8: anti-hPD1 antibody #9 (antibody, human IgG4, V domains shown)
VH: QVQLVQSGAEVKKPGASVKVSCKASGYTFTSYWMHWVRQAPGQGLEWMGEIDPYDSYTNYNQKFKGRVTMTIDKSTSTVYMELSSLTSEDTAVYYCARPGFTYGGMDFWGQGTLVTVSS
VL: DIVMTQSPDSLAVSLGERATINCRSSQSLLISGNQKNYLAWYQQKPGQPPKLLIYGASTRDSGVPDRFSGSGSGTDFTLTISSLQAEDVAVYYCQNNHYYPYTFGGGTKVEIK
notes: also called Anti-hPD1 #9; Anti-PD1 #9
In the case of B8, the “IC50, luciferase (RLU)” value in assay [1] was found to be 3140 pM. For the same molecule, the 50% effective concentration (EC50) in assay [2] was 1480 pM; in assay [3], 1010 pM.

B9: anti-hPD1 antibody #2 (antibody, human IgG4, V domains shown)
VH: QVQLVQSGAEVKKPGASVKVSCKASGYTFTSYWMHWVRQAPGQGLEWMGEIDPYDSYTNYNQKFKGRVTMTVDKSTSTVYMELSSLRSEDTAVYYCARPGNTYGGMDYWGQGTLVTVSS
VL: DIQMTQSPSSLSASVGDRVTITCRSSQSLFNSGNQKNYLAWYQQKPGKVPKLLIYGASTRDSGVPYRFSGSGSGTDFTLTISSLQPEDVATYYCQNDHYYPYTFGGGTKVEIK
notes: also called Anti-hPD1 #2; Anti-PD1 #2
Regarding B9, the “IC50, luciferase (RLU)” value in assay [1] turned out to be 2450 pM. Besides, the 50% effective concentration (EC50) in assay [2] was 416 pM; in assay [3], 398 pM.
